Reference: article PMC11286295, “Aspartate aminotransferase of Rhizobium leguminosarum has extended substrate specificity and metabolizes aspartate to enable N2 fixation in pea nodules” (Microbiology, 2024)

What was measured:
Test in all cases: purified protein
purified protein [1] = substrate: N[C@@H](CC(=O)O)C(=O)O; conditions: AKT reaction, co-substrate α-ketoglutarate, 0.05 mM PLP, 100 mM phosphate pH 7.5, 30 °C
purified protein [2] = substrate: O=C(O)CC(=O)C(=O)O; conditions: GOT reaction, co-substrate glutamate, 0.05 mM PLP, 100 mM NH4Cl, 100 mM phosphate pH 7.5, 30 °C
purified protein [3] = substrate: CC(=O)C(=O)O; assay type: biochemical, Rhizobium leguminosarum; conditions: APT reaction, co-substrate aspartate, 0.05 mM PLP, 100 mM phosphate pH 7.5, 30 °C
purified protein [4] = substrate: N[C@@H](CCC(=O)O)C(=O)O; assay type: biochemical, Rhizobium leguminosarum; conditions: GOT reaction, co-substrate oxaloacetate, 0.05 mM PLP, 100 mM NH4Cl, 100 mM phosphate pH 7.5, 30 °C
purified protein [5] = substrate: O=C(O)CCC(=O)C(=O)O; assay type: biochemical, Rhizobium leguminosarum; conditions: AKT reaction, co-substrate aspartate, 0.05 mM PLP, 100 mM phosphate pH 7.5, 30 °C

B1: AatA (Rhizobium leguminosarum bv. phaseoli) (protein)
chain: MAFLADALSRVKPSATIAVSQKARELKAKGRDVIGLGAGEPDFDTPDNIKKAAIDAINRGETKYTPVSGIPELRKAIAAKFKRENGLDYSWEQTIVGTGGKQILFNAFMATLNPGDEVSIPAPYWVSYPEMVALCGGTRFFVSATQEHNFKLQAADLEKAITPKTKWFIFNSPSNPTGAAYTHDELKALTDVLMKNPQVWVLTDDMYEHLTYGDFKFVTPVEVEPQLYDRTLTMNGVSKAYAMTGWRIGYAAGPIQLIKAMDMIQGQQTSGATSIAQWAAVEALNGTQDFIPENKKIFEGRRDLVVSMLNQAKGIVCPVPEGAFYVYPSCKGLIGKTAPSGKVIETDEDFVSELLESEGVAVVHGSAFGLGPNFRISYATSEEQLEEACRRIQRFCGACK
notes: recombinant from A34 gDNA in pET101/D-TOPO (pRU1152; vector with V5-tag and 6xHis), E. coli BL21 Star (DE3), His-Trap purified (histidine elution); expected homodimer; glycine at position 266
- Km (purified protein [1]): 1740 ± 320 µM
- kcat (purified protein [1]): 125.88 ± 5.09 s⁻¹
- Km (purified protein [2]): 180 ± 30 µM
- kcat (purified protein [2]): 168.08 ± 6.55 s⁻¹
- Km (purified protein [3]): 17000 ± 2000 µM
- kcat (purified protein [3]): 98.96 ± 4.37 s⁻¹
- Km (purified protein [4]): 4430 ± 520 µM
- kcat (purified protein [4]): 163.71 ± 3.64 s⁻¹
- Km (purified protein [5]): 320 ± 20 µM
- kcat (purified protein [5]): 130.97 ± 2.18 s⁻¹
